# Biological target: RSVF on RSV A2 strain carrying a luciferase gene (RSV-Luc) (RSV A2 strain, UniProt P03420 26-574)
# Test: cell-based or functional assay
# Sequence of RSVF on RSV A2 strain carrying a luciferase gene (RSV-Luc) (P03420 26-574): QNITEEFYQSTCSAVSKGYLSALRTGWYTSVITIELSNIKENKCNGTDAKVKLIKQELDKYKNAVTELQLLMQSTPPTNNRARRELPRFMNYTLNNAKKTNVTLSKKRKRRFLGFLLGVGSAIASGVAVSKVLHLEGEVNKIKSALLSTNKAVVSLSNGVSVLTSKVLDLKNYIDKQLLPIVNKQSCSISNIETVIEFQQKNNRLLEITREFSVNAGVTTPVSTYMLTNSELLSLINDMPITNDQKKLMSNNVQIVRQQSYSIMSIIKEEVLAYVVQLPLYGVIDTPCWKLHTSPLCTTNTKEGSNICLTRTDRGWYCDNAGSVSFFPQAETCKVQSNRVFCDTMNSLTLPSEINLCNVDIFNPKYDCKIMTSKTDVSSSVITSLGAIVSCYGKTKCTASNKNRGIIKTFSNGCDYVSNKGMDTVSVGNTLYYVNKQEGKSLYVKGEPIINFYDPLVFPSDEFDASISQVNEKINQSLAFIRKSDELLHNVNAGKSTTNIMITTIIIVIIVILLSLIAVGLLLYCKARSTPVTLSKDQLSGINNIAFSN
binder,measurement,value
"Palivizumab (antibody, V domains shown) VH: QVTLRESGPALVKPTQTLTLTCTFSGFSLSTSGMSVGWIRQPPGKALEWLADIWWDDKKDYNPSLKSRLTISKDTSKNQVVLKVTNMDPADTATYYCARSMITNWYFDVWGAGTTVTVSS VL: DIQMTQSPSTLSASVGDRVTITCKCQLSVGYMHWYQQKPGKAPKLLIYDTSKLASGVPSRFSGSGSGTEFTLTISSLQPDDFATYYCFQGSGYPFTFGGGTKLEIK",RSV neutralization IC50 (luciferase signal of RSV-Luc on HepG2 cells),0.32 mg/L

# — EP3628678A1 (Ecole Polytechnique Federale De Lausanne (EPFL) EPFL-TTO, dated 2020)
